One molecule from PMC5912500 can be followed below.

The experiment addresses T1, Wild-type (WT) moesin, P26038.
T1 chain: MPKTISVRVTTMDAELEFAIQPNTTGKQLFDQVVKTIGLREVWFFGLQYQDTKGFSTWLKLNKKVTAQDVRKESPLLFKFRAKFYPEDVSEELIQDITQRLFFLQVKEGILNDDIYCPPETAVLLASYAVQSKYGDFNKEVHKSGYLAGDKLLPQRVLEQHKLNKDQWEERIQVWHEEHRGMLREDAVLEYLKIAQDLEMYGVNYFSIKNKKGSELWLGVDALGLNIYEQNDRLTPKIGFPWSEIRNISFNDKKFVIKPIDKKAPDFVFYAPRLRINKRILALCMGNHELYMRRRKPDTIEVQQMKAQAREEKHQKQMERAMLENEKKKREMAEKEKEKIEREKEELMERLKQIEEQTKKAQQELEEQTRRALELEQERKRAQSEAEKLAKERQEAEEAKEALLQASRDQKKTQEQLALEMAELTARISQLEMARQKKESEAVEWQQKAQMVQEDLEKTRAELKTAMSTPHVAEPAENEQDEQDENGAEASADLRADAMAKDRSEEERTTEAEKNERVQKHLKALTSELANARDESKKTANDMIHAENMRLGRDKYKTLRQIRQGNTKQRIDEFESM
The experiment can be described thus: AUC. Particulars: remark: other sources report otherwise.

B1: Wild-type (WT) moesin, P26038 1-577 (natural protein)
chain: T1 chain
Take B1: the percent of the protein as dimers fell in the range of 29 to 31%.
